In patent US20260193348A1:

Legend:
[1] = molecular target: GPRC5D (G-protein coupled receptor family C group 5 member D), human, on multiple myeloma cell lines (human) (UniProt Q9NZD1); experiment: cell-based or functional assay
[2] = molecular target: CD3 (Cluster of Differentiation 3 protein), human, on T cells / Jurkat cells (human) (UniProt P07766); experiment: FACS, CD3+ T cells isolated from normal donors
Sequence of CD3 (Cluster of Differentiation 3 protein), human, on T cells / Jurkat cells (human) (P07766 23-207, chain 1 of 3): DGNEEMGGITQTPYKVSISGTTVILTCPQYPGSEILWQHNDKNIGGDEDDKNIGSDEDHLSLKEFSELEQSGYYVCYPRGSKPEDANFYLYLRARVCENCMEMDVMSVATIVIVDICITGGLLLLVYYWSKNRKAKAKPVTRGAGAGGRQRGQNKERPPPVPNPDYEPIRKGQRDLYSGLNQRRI
Sequence of CD3 (Cluster of Differentiation 3 protein), human, on T cells / Jurkat cells (human) (P04234 22-171, chain 2 of 3, further chain): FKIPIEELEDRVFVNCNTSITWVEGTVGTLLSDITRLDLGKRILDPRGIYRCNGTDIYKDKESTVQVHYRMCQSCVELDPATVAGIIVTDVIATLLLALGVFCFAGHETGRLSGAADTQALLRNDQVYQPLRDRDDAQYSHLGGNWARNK
Sequence of CD3 (Cluster of Differentiation 3 protein), human, on T cells / Jurkat cells (human) (P09693 23-182, chain 3 of 3, further chain): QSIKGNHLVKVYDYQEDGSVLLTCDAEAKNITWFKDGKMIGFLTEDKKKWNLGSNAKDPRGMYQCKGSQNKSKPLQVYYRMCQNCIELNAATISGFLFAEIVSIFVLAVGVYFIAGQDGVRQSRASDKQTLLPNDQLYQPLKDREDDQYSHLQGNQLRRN

Sequence of GPRC5D (G-protein coupled receptor family C group 5 member D), human, on multiple myeloma cell lines (human) (Q9NZD1 whole entry): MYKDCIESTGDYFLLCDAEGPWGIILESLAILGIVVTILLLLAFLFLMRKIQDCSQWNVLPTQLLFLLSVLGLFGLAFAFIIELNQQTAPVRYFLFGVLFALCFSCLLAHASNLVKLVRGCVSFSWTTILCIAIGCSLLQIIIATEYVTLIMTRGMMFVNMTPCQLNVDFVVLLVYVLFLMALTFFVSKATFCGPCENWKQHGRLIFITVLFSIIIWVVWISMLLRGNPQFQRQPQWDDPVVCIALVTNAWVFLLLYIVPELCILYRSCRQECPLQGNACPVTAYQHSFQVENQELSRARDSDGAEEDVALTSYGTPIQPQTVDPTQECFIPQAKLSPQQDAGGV

Which Top (%), T-Cell Dependent Cytotoxicity, MM.1S [1] does the source give for IgG1 (antibody) here?
Its Top (%), T-Cell Dependent Cytotoxicity, MM.1S is 6.08%.

What about the Top (RLU), luciferase assay, L363 [1] of the same substance?
The Top (RLU), luciferase assay, L363 was 23.4 RLU.

What about the Top (RLU), luciferase assay, MM.1S [1] of the same substance?
Its Top (RLU), luciferase assay, MM.1S is 30.7 RLU.

What about the Top (RLU), luciferase assay, RPMI8226 [1] of the same substance?
Its Top (RLU), luciferase assay, RPMI8226 is 5.33 RLU.

What about the Top (MFI) [2] of the same substance?
The Top (MFI) was 124 MFI.
